Where two headings read alike, the source gives them in different places.

Test [1] deals with human FXIa factor (human) (UniProt P03951). Nature of the test: cell-based or functional assay.
The target is the same in test [2]. Nature of the test: cell-based or functional assay. The source holds these as a separate data set.
For test [3] the target is unchanged. Nature of the test: cell-based or functional assay. This is another data set of the same source.
The target is the same in test [4]. Nature of the test: Biacore 8K (SPR), human FXIa in 2-fold dilution series.
The target of test [5] is T1, human FXIa factor (human, UniProt P03951 19-625). Nature of the test: cell-based or functional assay.
Test [6] deals with T1, human FXIa factor. Nature of the test: cell-based or functional assay. The source holds these as a separate data set.
The target in test [7] is T1, human FXIa factor. Nature of the test: Biacore 8K (SPR), human FXIa in 2-fold dilution series. (In general: Surface plasmon resonance follows binding to a sensor surface in real time, without labels.)
Test [8] concerns the target T1, human FXIa factor. Nature of the test: cell-based or functional assay. This is another data set of the same source.

For orientation: Kd means a measure of binding affinity in units of concentration. Higher therefore signals lower affinity. Usually koff stands for the rate constant with which the complex falls apart. A higher koff goes with fast dissociation. As a reminder, the kon is the rate constant with which the complex forms. On to MAA868 (antibody), for which, in test [1], the FXIa kit Activity Assay (nM), IC50 was 12.7 nM. In test [2], this molecule displayed an FXIa Kit Activity Assay (nM), IC50 (First Batch) of 11.2 nM; an FXIa Kit Activity Assay (nM), IC50 (Second Batch) of 11.7 nM; an FXIa Kit Activity Assay (nM), IC50 (Third Batch) of 13.3 nM; an FXIa kit Activity Assay (nM), IC50 of 28.9 nM. Further, in test [2], the IC50(nM) from S2366 Assay came to 67.3 nM, the IC50(nM) from S2366 assay (First Batch) is 118 nM, the IC50(nM) from S2366 assay (Fourth Batch) turned out to be 64.7 nM and the IC50(nM) from S2366 assay (Second Batch) was 83.6 nM. Besides, in test [2], the IC50(nM) from S2366 assay (Third Batch) worked out at 106 nM and the OD405nm, S2366 activity assay, antibody at 20µg/mL was determined as 0.449 OD405nm. The IC50(nM) from S2366 Assay in test [3] turned out to be 44.9 nM. Besides, in test [4], the Kd amounted to 0.00717 nM, the koff worked out at 8.48e-06 s⁻¹ and the kon worked out at 1.18e+06 M⁻¹ s⁻¹.

B1: 29E10C4-sy (antibody, V domains shown)
VH: QVKLEESGAELVRPGTSVKVSCKASGYAFTDYFIEWIKQRPGQGLEWIGVINPGNDVTNYNEKFKGKATLTVDKSSTTAYMQLSSLTSDDSAVYFCTRSAGNYENSMDFWGQGTSVTVSS
VL: DIVLTQSPKFLLVSAGDRVTITCKASQSVSNDVGWYQQKPGQSPKLLIYYTSNRYTGVPDRFTGSGYGTDFTFTISSVQAEDLAVYFCQQDYHFPLTFGAGTKLELK
For the molecule B1, the “OD405nm, S2366 activity assay, antibody at 20µg/mL” value with human FXIa factor [5] stood at 0.198 OD405nm. Also, the “FXIa kit Activity Assay (nM), IC50” value with human FXIa factor [6] was found to be 0.248 nM.

B2: 11E8-sy (antibody, V domains shown)
VH: EVKLQESGPELVKTGASVKISCKASGYSFTGYFMNWVKQSHGKSLEWIGFINCYNGATSYNQKFKGKATFTVDASSSSAYMQFNSLTSEDSAVYYCARTISTGDSFDYWGQGSTLTVSS
VL: DIVMTQSTSYLSVSLGGRVTITCKASDHINNWLAWYQQKPGDAPSLLISGASRLETGVPSRFSGSGSGKDYTLSITSLQTEDVATYYCQQYWTTPFTFGSGTKLEIK
On to B2, for which, in the test with human FXIa factor [5], the “OD405nm, S2366 activity assay, antibody at 20µg/mL” value was found to be 0.294 OD405nm.

B3: humanized antibody 29E10C4-1 (antibody, human IgG1, kappa, V domains shown)
VH: QVQLVQSGAEVKKPGSSVKVSCKASGGTFSDYFIEWVRQAPGQGLEWMGVINPGNDVTNYNEKFKGRVTITADKSTSTAYMELSSLRSEDTAVYYCARSAGNYENSMDFWGQGTTVTVSS
VL: EIVLTQSPATLSLSPGERATLSCKASQSVSNDVGWYQQKPGQAPRLLIYYTSNRYTGIPARFSGSGSGTDFTLTISSLEPEDFAVYYCQQDYHFPLTFGGGTKVEIKR
notes: 29E10C4-1 is the only humanized form of that clone
As to B3, the “FXIa kit Activity Assay (nM), IC50” value in the test with human FXIa factor [6] is 0.545 nM. In the test with human FXIa factor [7], this molecule yielded a Kd of 0.00145 nM, a koff of 1.96e-05 s⁻¹ and an on-rate (kon) of 1.35e+07 M⁻¹ s⁻¹. Further, in the test with human FXIa factor [8], the “IC50 (nM) from S2366 Assay” value stood at 24.5 nM.

The record behind these values is patent publication EP4644426A1 (Gan & Lee Pharmaceuticals Co., Ltd., dated 2025).
